For orientation: Kd means a measure of binding affinity in units of concentration. Usually koff stands for the first-order rate constant of dissociation.

In test [1] the target is T1, Recombinant mouse PrP full length (23-230) (mouse, UniProt P04925 23-230). In words: SPR. A general note: Surface plasmon resonance follows binding to a sensor surface in real time, without labels.
Test [2] has as its target T1, Recombinant mouse PrP full length …. In words: SPR. This is another data set of the same source.

T1 sequence (P04925 23-230): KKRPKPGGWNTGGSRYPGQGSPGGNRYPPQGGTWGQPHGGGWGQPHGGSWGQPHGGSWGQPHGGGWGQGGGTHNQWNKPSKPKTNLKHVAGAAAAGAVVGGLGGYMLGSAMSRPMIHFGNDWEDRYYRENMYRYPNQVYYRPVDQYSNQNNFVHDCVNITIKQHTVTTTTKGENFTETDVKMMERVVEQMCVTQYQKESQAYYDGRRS

B1: scPOM2 (scFv, V domains shown)
VH: VKLQESGGEVVRPGTSVKVSCKASGYAFTNYLIEWVKQRPGQGLEWIGVINPGSGDTNYNEKFKGKATLTADKSSSTAYMQLNSLTSDDSAVYFCARSGAAAPTYYAMDYWGQGVSVTVSS
VL: DIVMTQSHKFMSTSVGDRVSITCKASQVGTALAWYQQKPGQSPKLLIYWASTRHTGVPDRFTGSGSGTDFTLTISNVQSEDLSDYFCQQYSSYPTFGGGTKLEIK
Regarding B1, the Kd in test [1] amounted to 23 nM. In test [2], the koff was 0.00036 s⁻¹.

B2: Full IgG POM2 monoclonal antibody (antibody, V domains shown)
VH: VKLQESGGEVVRPGTSVKVSCKASGYAFTNYLIEWVKQRPGQGLEWIGVINPGSGDTNYNEKFKGKATLTADKSSSTAYMQLNSLTSDDSAVYFCARSGAAAPTYYAMDYWGQGVSVTVSS
VL: DIVMTQSHKFMSTSVGDRVSITCKASQVGTALAWYQQKPGQSPKLLIYWASTRHTGVPDRFTGSGSGTDFTLTISNVQSEDLSDYFCQQYSSYPTFGGGTKLEIK
B2: the Kd in test [1] was found to be 0.1 nM. In test [2], the koff worked out at 9.5e-06 s⁻¹.
